Here are results for five compounds from PMC7503470 (Molecules, 2020).

The nature of data set [1]: mouse urine samples collected at 15 min p.i. The settings on record: Male NSG mice, up to 15 min p.i.
The nature of data set [2]: mouse blood samples collected at 5 min p.i. The settings on record: Male NSG mice, up to 5 min p.i.
Data set [3] in a line: brush border membrane vesicles (BBMVs) extracted from mouse kidneys, with phosphoramidon. The following applies: 37 °C, up to 1 h.
Data set [4] in a line: brush border membrane vesicles (BBMVs) extracted from mouse kidneys. The following applies: 37 °C, up to 1 h.
The next data set deals with mice. The settings on record: mouse, in vivo. The procedure: Radio-metabolites of [^68Ga]Ga-DOTA-AmBz-MVK(Ac)-OH and [^68Ga]Ga-DOTA-AmBz-MVK(HTK01166)-OH in mouse blood and urine samples were analyzed by HPLC. The blood samples were collected at 5 min p.i. due to the fast excretion nature of the small radio-metabolites, whereas the urine samples were collected at 15 min p.i. to allow sufficient time for the accumulation of enough radio-metabolites for analysis.
Male NSG mice were injected with 3–17 MBq of the ^68Ga-labeled peptide. For blood profiling, mice were anesthetized with 2% isoflurane in O2 and euthanized by CO2 inhalation at 5 min p.i. Blood draw was then performed by cardiac puncture and blood was collected in an eppendorf tube with equal volume of CH3CN. Each tube was then centrifuged at RT for 10–15 min and the resulting supernatant was collected and analyzed using the analytical HPLC column to identify and quantify radio-metabolite(s) in blood. For the purpose of urine profiling, urine was collected after euthanizing the mice at 15 min p.i. The urine samples were also collected and analyzed using the analytical HPLC column to identify and quantify radio-metabolite(s) in urine.

The nature of another data set: in vivo. The settings on record: male, NOD-scid IL2Rg^null (NSG), mouse, iv, total radioactivity. The procedure:
All imaging and biodistribution studies were performed using male NOD-scid IL2Rg^null (NSG) mice and conducted according to the guidelines established by the Canadian Council on Animal Care and approved by Animal Ethics Committee of the University of British Columbia. For tumor inoculations, mice were anesthetized by inhalation with 2% isoflurane in oxygen and implanted subcutaneously with 5 × 10^6 LNCaP cells below the left shoulder. Imaging and biodistribution studies were performed only after tumors grew to 5−8 mm in diameter over a period of 5−7 weeks.
For ex vivo biodistribution studies, mice were injected with ~1.5−3 MBq of the ^68Ga-labeled tracer. At 1 h p.i., mice were euthanized, blood was drawn from heart, and organs/tissues of interest were collected, rinsed with PBS, blotted dry, weighed, and counted using an automated gamma counter. The uptake in each organ/tissue was normalized to the injected dose and expressed as the percentage of the injected dose per gram of tissue (%ID/g).
Statistical analyses were performed by Student’s t-test using the Microsoft (Redmond, WA, USA) Excel software. The unpaired, two-tailed test was used to compare tissue uptake and tumor-to-background (muscle, blood and kidney) contrast ratios of [^68Ga]Ga-DOTA-AmBz-MVK(HTK01166)-OH and [^68Ga]Ga-DOTA-AmBz-M(O)VK(HTK01166)-OH. The unpaired, one-tailed test was used to compare kidney uptake of [^68Ga]Ga-DOTA-AmBz-MVK(HTK01166)-OH (or [^68Ga]Ga-DOTA-AmBz-M(O)VK(HTK01166)-OH) with that of the previously reported [^68Ga]Ga-HTK01166 [15]. The difference was considered statistically significant when the p value was <0.05.

Data set [5] is described as follows: brush border membrane vesicles (BBMVs) extracted from mouse kidneys, control well with phosphoramidon. The following applies: 37 °C, up to 1 h.

On to [^68Ga]Ga-DOTA-AmBz-MVK(HTK01166)-OH, for which the cleaved bond result is on record as “Met-Val, 15 min p.i” in data set [1]; “Met-Val, 5 min p.i” in data set [2]; “Met-Val, 1 h” in data set [4]. Moreover, the not cleaved in data set [3] was about 95% intact after 1 h.
As for `CSCC[C@H](NC(=O)c1ccc(CNC(=O)CN2CCN(CC(=O)O)CCN(CC(=O)O)CCN(CC(=O)O)CC2)cc1)C(=O)N[C@H](C(=O)N[C@@H](CCCCNC(=O)CCc1cn(CC(=O)NC[C@H]2CC[C@H](C(=O)N[C@H](C(=O)NCCCC[C@H](NC(=O)N[C@@H](CCC(=O)O)C(=O)O)C(=O)O)C3Cc4ccccc4C3)CC2)nn1)C(=O)O)C(C)C` [[^68Ga]Ga-DOTA-AmBz-MVK(HTK01166)-OH, metal not drawn], the “unidentified radio-metabolite in urine” value in the data set on mice is on record as “no presence”. Further, the tissue uptake at 1 h was determined as 5.59 ± 4.02 %ID/g in “in vivo” (Adrenal Glands uptake); 0.16 ± 0.04 %ID/g in the data set “in vivo” (Bone uptake); 0.02 %ID/g in the data set “in vivo” (Brain uptake); 0.72 ± 0.33 %ID/g in the data set “in vivo” (Fat uptake); 0.25 ± 0.12 %ID/g in “in vivo” (Heart uptake); 0.4 ± 0.1 %ID/g in the data set “in vivo” (Intestines uptake). The tissue uptake at 1 h in “in vivo” (Kidneys uptake) worked out at 104 ± 12.2 %ID/g; in “in vivo” (LNCaP Tumor uptake), 3.98 ± 0.87 %ID/g; in “in vivo” (Liver uptake), 0.58 ± 0.08 %ID/g; in the data set “in vivo” (Lungs uptake) it was 0.96 ± 0.12 %ID/g; in “in vivo” (Muscle uptake), 0.21 ± 0.05 %ID/g; in the data set “in vivo” (Pancreas uptake) it was 0.6 ± 0.22 %ID/g. For the same compound, the tissue uptake at 1 h was found to be 8.87 ± 2.63 %ID/g in the data set “in vivo” (Spleen uptake), 0.11 ± 0.02 %ID/g in “in vivo” (Stomach uptake), 1.03 ± 0.82 %ID/g in the data set “in vivo” (Tail uptake) and 0.36 ± 0.06 %ID/g in the data set “in vivo” (Testes uptake). In addition, the results for the tissue to tissue ratio at 1 h in “in vivo” (Tumor/Blood uptake ratio), in the data set “in vivo” (Tumor/Kidney uptake ratio) and in “in vivo” (Tumor/Muscle uptake ratio) were 7.24 ± 1.16, 0.04 ± 0.01 and 19.9 ± 5.41, respectively.
[^68Ga]Ga-DOTA-AmBz-M(O)VK(HTK01166)-OH: the not cleaved is recorded as 99.5% remaining intact after 1 h in data set [5] and 94% remaining intact after 1 h in data set [4].
For the compound [^68Ga]Ga-DOTA-AmBz-MVK(Ac)-OH, the cleaved bond entry in data set [1] is “Met-Val, major, 15 min p.i”; in data set [2] it was “Met-Val, minor, 5 min p.i”; in data set [5] it was “Met-Val, 1 h”; in data set [4] it was “Met-Val, major, 1 h”.
With `CC(C)[C@H](NC(=O)[C@H](CC[S+](C)[O-])NC(=O)c1ccc(CNC(=O)CN2CCN(CC(=O)O)CCN(CC(=O)O)CCN(CC(=O)O)CC2)cc1)C(=O)N[C@@H](CCCCNC(=O)CCc1cn(CC(=O)NC[C@H]2CC[C@H](C(=O)N[C@H](C(=O)NCCCC[C@H](NC(=O)N[C@@H](CCC(=O)O)C(=O)O)C(=O)O)C3Cc4ccccc4C3)CC2)nn1)C(=O)O` (stereo partly shown) [[^68Ga]Ga-DOTA-AmBz-M(O)VK(HTK01166)-OH, metal not drawn], the tissue uptake at 1 h in “in vivo” (Adrenal Glands uptake) was found to be 4.33 ± 2.07 %ID/g; in the data set “in vivo” (Bone uptake) it was 0.11 ± 0.05 %ID/g; in the data set “in vivo” (Brain uptake) it was 0.03 ± 0.01 %ID/g; in “in vivo” (Fat uptake), 0.52 ± 0.13 %ID/g; in “in vivo” (Heart uptake), 0.23 ± 0.05 %ID/g; in “in vivo” (Intestines uptake), 0.29 ± 0.1 %ID/g. The tissue uptake at 1 h is 89.7 ± 19.3 %ID/g in the data set “in vivo” (Kidneys uptake); 4.06 ± 1.27 %ID/g in the data set “in vivo” (LNCaP Tumor uptake); 0.32 ± 0.06 %ID/g in “in vivo” (Liver uptake); 0.88 ± 0.1 %ID/g in the data set “in vivo” (Lungs uptake); 0.22 ± 0.05 %ID/g in “in vivo” (Muscle uptake); 0.56 ± 0.24 %ID/g in the data set “in vivo” (Pancreas uptake). The tissue uptake at 1 h was 11.5 ± 2.7 %ID/g in “in vivo” (Spleen uptake), 0.13 ± 0.05 %ID/g in the data set “in vivo” (Stomach uptake), 1.86 ± 2.44 %ID/g in the data set “in vivo” (Tail uptake) and 0.31 ± 0.07 %ID/g in “in vivo” (Testes uptake). The tissue to tissue ratio at 1 h amounted to 6.83 ± 2.81 in the data set “in vivo” (Tumor/Blood uptake ratio), 0.04 ± 0.02 in the data set “in vivo” (Tumor/Kidney uptake ratio) and 17.9 ± 7.57 in the data set “in vivo” (Tumor/Muscle uptake ratio).
